Data from publication PMC10397247.
Blank lines part the entries; values can stand above or below the binder they belong to.

Tests used:
[1] = molecular target: T1, Core_NIII-es_KKKK; experiment: two-hybrid library CCmax; conditions: mean of both orientations;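 further: natural log of median RNA to DNA barcode read ratio; higher means stronger binding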
T1 chain: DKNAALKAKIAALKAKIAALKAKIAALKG

[2] = molecular target: T2, Core_INNN-es_KKKE; experiment: two-hybrid library CCmax; conditions: mean of both orientations;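 further: natural log of median RNA to DNA barcode read ratio; higher means stronger binding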
T2 chain: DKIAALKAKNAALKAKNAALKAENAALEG

[3] = molecular target: T3, Core_INNN-es_KKKK; experiment: two-hybrid library CCmax; conditions: mean of both orientations;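 further: natural log of median RNA to DNA barcode read ratio; higher means stronger binding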
T3 chain: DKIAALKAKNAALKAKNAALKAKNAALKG

[4] = molecular target: T4, Core_IINN-es_KEEK; experiment: two-hybrid library CCmax; conditions: mean of both orientations;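 further: natural log of median RNA to DNA barcode read ratio; higher means stronger binding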
T4 chain: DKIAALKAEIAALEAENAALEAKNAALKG

[5] = molecular target: T5, Core_INNN-es_KKEK; experiment: two-hybrid library CCmax; conditions: mean of both orientations
T5 chain: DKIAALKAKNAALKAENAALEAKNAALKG

[6] = molecular target: T6, Core_ININ-es_KKEE; experiment: two-hybrid library CCmax; conditions: mean of both orientations
T6 chain: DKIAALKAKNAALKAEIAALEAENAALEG

[7] = molecular target: T7, 4H264-bH; experiment: two-hybrid library CCNG1
T7 chain: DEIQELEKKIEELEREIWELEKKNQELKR

[8] = molecular target: T8, 4H2253-bH; experiment: two-hybrid library CCNG1
T8 chain: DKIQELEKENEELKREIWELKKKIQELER

[9] = molecular target: T9, 4H2162-bH; experiment: two-hybrid library CCNG1
T9 chain: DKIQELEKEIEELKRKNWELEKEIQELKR

[10] = molecular target: T10, 4H2760-bH; experiment: two-hybrid library CCNG1
T10 chain: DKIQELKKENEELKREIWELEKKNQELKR

[11] = molecular target: T11, 4H932-bH; experiment: two-hybrid library CCNG1
T11 chain: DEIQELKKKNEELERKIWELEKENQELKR

[12] = molecular target: T12, 4H2859-bH; experiment: two-hybrid library CCNG1
T12 chain: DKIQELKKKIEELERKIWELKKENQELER

[13] = molecular target: T13, 4H2518-bH; experiment: two-hybrid library CCNG1
T13 chain: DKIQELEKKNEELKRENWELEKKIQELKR

[14] = molecular target: T14, 4H2444-bH; experiment: two-hybrid library CCNG1
T14 chain: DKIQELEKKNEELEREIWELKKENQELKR

[15] = molecular target: T15, 4H2143-bH; experiment: two-hybrid library CCNG1
T15 chain: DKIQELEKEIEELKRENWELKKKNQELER

[16] = molecular target: T16, 4H2931-bH; experiment: two-hybrid library CCNG1
T16 chain: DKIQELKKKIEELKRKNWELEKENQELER

[17] = molecular target: T17, 4H349-bH; experiment: two-hybrid library CCNG1
T17 chain: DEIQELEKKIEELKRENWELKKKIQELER

[18] = molecular target: T18, 4H3381-bH; experiment: two-hybrid library CCNG1
T18 chain: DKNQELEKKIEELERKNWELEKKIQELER

[19] = molecular target: T19, 4H796-bH; experiment: two-hybrid library CCNG1
T19 chain: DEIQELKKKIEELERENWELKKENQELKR

[20] = molecular target: T20, 4H2585-bH; experiment: two-hybrid library CCNG1
T20 chain: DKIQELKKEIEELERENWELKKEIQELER

[21] = molecular target: T21, 4H730-bH; experiment: two-hybrid library CCNG1
T21 chain: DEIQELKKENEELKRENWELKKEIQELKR

[22] = molecular target: T22, 4H3297-bH; experiment: two-hybrid library CCNG1
T22 chain: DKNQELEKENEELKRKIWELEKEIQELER

[23] = molecular target: T23, 4H2233-bH; experiment: two-hybrid library CCNG1
T23 chain: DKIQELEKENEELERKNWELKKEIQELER

[24] = molecular target: T24, 4H235-bH; experiment: two-hybrid library CCNG1
T24 chain: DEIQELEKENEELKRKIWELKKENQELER

[25] = molecular target: T25, 4H166-bH; experiment: two-hybrid library CCNG1
T25 chain: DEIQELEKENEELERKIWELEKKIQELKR

[26] = molecular target: T26, 4H3041-bH; experiment: two-hybrid library CCNG1
T26 chain: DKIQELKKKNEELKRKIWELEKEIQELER

[27] = molecular target: T27, 4H949-bH; experiment: two-hybrid library CCNG1
T27 chain: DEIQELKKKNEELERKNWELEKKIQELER

[28] = molecular target: T28, 4H56-bH; experiment: two-hybrid library CCNG1
T28 chain: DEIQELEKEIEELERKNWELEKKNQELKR

[29] = molecular target: T29, 4H967-bN; experiment: two-hybrid library CCNG1
T29 chain: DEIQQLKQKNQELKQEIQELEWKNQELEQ

[30] = molecular target: T30, 4H3364-bH; experiment: two-hybrid library CCNG1
T30 chain: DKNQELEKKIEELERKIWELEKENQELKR

[31] = molecular target: T31, Core_INNI-es_KKEK; experiment: two-hybrid library CCmax; conditions: mean of both orientations
T31 chain: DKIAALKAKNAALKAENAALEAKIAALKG

[32] = molecular target: T32, P5bH1; experiment: two-hybrid library CCNG1
T32 chain: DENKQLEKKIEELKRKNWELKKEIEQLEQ

[33] = molecular target: T33, P6bH1; experiment: two-hybrid library CCNG1
T33 chain: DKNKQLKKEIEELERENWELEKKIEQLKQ

[34] = molecular target: T34, P11bH1; experiment: two-hybrid library CCNG1
T34 chain: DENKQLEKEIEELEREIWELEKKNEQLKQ

[35] = molecular target: T35, P10bH1; experiment: two-hybrid library CCNG1
T35 chain: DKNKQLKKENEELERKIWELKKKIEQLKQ

[36] = molecular target: T36, P4bH1; experiment: two-hybrid library CCNG1
T36 chain: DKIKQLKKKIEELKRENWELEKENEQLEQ

[37] = molecular target: T37, P7bH1; experiment: two-hybrid library CCNG1
T37 chain: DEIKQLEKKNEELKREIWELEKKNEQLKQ

[38] = molecular target: T38, P3bH1; experiment: two-hybrid library CCNG1
T38 chain: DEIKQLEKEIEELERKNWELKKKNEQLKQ

[39] = molecular target: T39, P8bH1; experiment: two-hybrid library CCNG1
T39 chain: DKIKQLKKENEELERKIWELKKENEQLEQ

[40] = molecular target: T40, P12bH1; experiment: two-hybrid library CCNG1
T40 chain: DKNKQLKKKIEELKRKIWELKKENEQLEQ

[41] = molecular target: T41, P1bH1; experiment: two-hybrid library CCNG1
T41 chain: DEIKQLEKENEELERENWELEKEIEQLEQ

[42] = molecular target: T42, P2bH1; experiment: two-hybrid library CCNG1
T42 chain: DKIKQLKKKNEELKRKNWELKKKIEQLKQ

[43] = molecular target: T43, P9bH1; experiment: two-hybrid library CCNG1
T43 chain: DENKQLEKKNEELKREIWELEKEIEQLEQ

[44] = molecular target: T44, Core_INNI-es_KEKE; experiment: two-hybrid library CCmax; conditions: mean of both orientations
T44 chain: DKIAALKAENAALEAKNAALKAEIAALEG

[45] = molecular target: T45, Core_INII-es_KEEE; experiment: two-hybrid library CCmax; conditions: mean of both orientations
T45 chain: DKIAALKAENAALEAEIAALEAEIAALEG

[46] = molecular target: T46, Core_NIIN-es_KKKK; experiment: two-hybrid library CCmax; conditions: mean of both orientations
T46 chain: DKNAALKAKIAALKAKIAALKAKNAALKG

[47] = molecular target: T47, Core_INII-es_KEKK; experiment: two-hybrid library CCmax; conditions: mean of both orientations
T47 chain: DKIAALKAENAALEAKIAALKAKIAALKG

Binder: DEIAALEAENAALEAENAALEAKNAALKG [Core_INNN-es_EEEK]
interaction score [2]: 2.01

Binder: DEIQELEKENEELERKIWELEKKIQELKR [4H166-bH]
interaction score [7]: 0.0745
interaction score [8]: 1.03
interaction score [9]: 1.49
interaction score [10]: 0.896
interaction score [11]: 0.193
interaction score [12]: 1.65
interaction score [13]: 1.54
interaction score [14]: 0.192
interaction score [15]: 0.23
interaction score [16]: 1.25
interaction score [17]: 0.968
interaction score [18]: 0.522
interaction score [19]: 0.588
interaction score [20]: 0.621
interaction score [21]: 0.00471
interaction score [22]: 1.62
interaction score [23]: 0.81
interaction score [24]: -0.624
interaction score [25]: 0.0371
interaction score [26]: 1.58
interaction score [27]: 0.814
interaction score [28]: -1.05
interaction score [29]: -0.508
interaction score [30]: -1.32

Binder: DEIAALEAENAALEAKNAALKAEIAALEG [Core_INNI-es_EEKE]
interaction score [31]: 2.03

Binder: DKNKQLKKENEELERKIWELKKKIEQLKQ [P10bH1]
interaction score [32]: -0.973
interaction score [33]: 0.126
interaction score [34]: 0.862
interaction score [35]: 0.178
interaction score [36]: -0.889
interaction score [37]: 0.654
interaction score [38]: 1.35
interaction score [39]: -0.375
interaction score [40]: -0.838
interaction score [41]: 1.14
interaction score [42]: -1.33
interaction score [43]: 1.04

Binder: DEIAALEAKNAALKAENAALEAKIAALKG [Core_INNI-es_EKEK]
interaction score [44]: 2.27

Binder: DENAALEAEIAALEAEIAALEAENAALEG [Core_NIIN-es_EEEE]
interaction score [46]: 1.68

Binder: DEIAALEAKNAALKAEIAALEAEIAALEG [Core_INII-es_EKEE]
interaction score [47]: 1.83

Continued, values first:

interaction score [1]: 2.01
Binder: DENAALEAEIAALEAEIAALEAEIAALEG [Core_NIII-es_EEEE]

interaction score [3]: 2.18
Binder: DEIAALEAENAALEAENAALEAENAALEG [Core_INNN-es_EEEE]

interaction score [4]: 1.87
Binder: DEIAALEAKIAALKAKNAALKAENAALEG [Core_IINN-es_EKKE]

interaction score [5]: 1.84
Binder: DEIAALEAENAALEAKNAALKAENAALEG [Core_INNN-es_EEKE]

interaction score [6]: 2.03
Binder: DEIAALEAENAALEAKIAALKAKNAALKG [Core_ININ-es_EEKK]

interaction score [45]: 2.08
Binder: DEIAALEAKNAALKAKIAALKAKIAALKG [Core_INII-es_EKKK]
